This note sets out measurements from PMC9482650, “Quantitative fragmentomics allow affinity mapping of interactomes” (Nature Communications, 2022).

What all share (assay): holdup assay
Common to all, as to set-up: key: below the threshold = too weak to quantify, mostly under pKd 3.1 to 4
Holding throughout (settings): plain residues with an end cap or a label only (N-terminal biotin on a linker: ado-ado)

Assay [1] has as its target T1, LIN7B, Q9HAP6.
T1 sequence (Q9HAP6 88-185, limits assumed, looked up): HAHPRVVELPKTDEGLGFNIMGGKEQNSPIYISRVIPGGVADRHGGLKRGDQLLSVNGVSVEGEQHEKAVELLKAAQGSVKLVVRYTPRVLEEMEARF

Assay [2] has as its target Inadl_4, Q8NI35.
Assay [3] has as its target T2, GRIP1_5, Q9Y3R0.
T2 sequence (Q9Y3R0 568-668, limits assumed, looked up): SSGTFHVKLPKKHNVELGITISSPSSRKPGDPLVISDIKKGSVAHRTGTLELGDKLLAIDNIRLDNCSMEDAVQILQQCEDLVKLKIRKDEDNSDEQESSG

Assay [4] deals with T3, MPP7, Q5T2T1.
T3 sequence (Q5T2T1 134-230, limits assumed, looked up): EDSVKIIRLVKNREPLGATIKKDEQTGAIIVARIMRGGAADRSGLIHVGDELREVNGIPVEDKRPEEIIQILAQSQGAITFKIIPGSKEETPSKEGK

The target of assay [5] is CASK, O14936.
Assay [6] has as its target MAGI2_6, Q86UL8.
Assay [7] deals with T4, APBA1_2, Q02410.
T4 sequence (Q02410 742-832, limits assumed, looked up): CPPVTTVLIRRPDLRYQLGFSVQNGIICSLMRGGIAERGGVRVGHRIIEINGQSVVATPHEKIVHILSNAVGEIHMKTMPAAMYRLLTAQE

The target in assay [8] is T5, NHERF3_3, Q5T2W1.
T5 sequence (Q5T2W1 238-333, limits assumed, looked up): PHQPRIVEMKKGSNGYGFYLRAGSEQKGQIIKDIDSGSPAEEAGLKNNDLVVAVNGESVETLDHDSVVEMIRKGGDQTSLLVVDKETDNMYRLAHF

Assay [9] addresses PDLIM1, O00151.
Assay [10] deals with GRIP2_4, Q9C0E4.
The target of assay [11] is T6, MPP2, Q14168.
T6 sequence (Q14168 180-250, limits assumed, looked up): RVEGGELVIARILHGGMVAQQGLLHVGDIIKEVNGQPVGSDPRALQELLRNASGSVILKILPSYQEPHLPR

For assay [12], the target named is T7, NHERF3_4, Q5T2W1.
T7 sequence (Q5T2W1 373-468, limits assumed, looked up): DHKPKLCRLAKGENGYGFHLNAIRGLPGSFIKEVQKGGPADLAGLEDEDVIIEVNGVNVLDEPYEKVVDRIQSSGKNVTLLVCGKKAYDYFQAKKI

Assay [13] addresses ARHGEF12, Q9NZN5-2.
The target of assay [14] is T8, SNTB1, Q13884.
T8 sequence (Q13884 107-205, limits assumed, looked up): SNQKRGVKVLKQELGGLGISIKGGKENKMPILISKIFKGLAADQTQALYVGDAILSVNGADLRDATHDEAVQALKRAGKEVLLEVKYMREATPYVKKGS

The target in assay [15] is T9, PDZD7_3, Q9H5P4.
T9 sequence (Q9H5P4 857-944, limits assumed, looked up): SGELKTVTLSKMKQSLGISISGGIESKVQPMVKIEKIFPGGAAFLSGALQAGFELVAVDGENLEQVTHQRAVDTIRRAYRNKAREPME

Assay [16] concerns the target T10, ARHGAP21, Q5T5U3.
T10 sequence (Q5T5U3 45-169, limits assumed, looked up): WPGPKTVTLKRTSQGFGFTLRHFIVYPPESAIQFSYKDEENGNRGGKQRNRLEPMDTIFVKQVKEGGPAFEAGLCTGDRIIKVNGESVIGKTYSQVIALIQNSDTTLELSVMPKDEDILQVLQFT

Assay [17] concerns the target T11, APBA2_2, Q99767.
T11 sequence (Q99767 654-744, limits assumed, looked up): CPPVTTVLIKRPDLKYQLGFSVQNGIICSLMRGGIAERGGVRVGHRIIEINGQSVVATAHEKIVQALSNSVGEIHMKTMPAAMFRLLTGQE

The target in assay [18] is DLG4_1, P78352.
The target of assay [19] is MAST2, Q6P0Q8.
Assay [20] deals with T12, MPDZ_5, O75970.
T12 sequence (O75970 695-796, limits assumed, looked up): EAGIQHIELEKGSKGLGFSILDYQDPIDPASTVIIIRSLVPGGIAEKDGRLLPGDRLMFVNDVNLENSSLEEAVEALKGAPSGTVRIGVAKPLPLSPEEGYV

Assay [21] has as its target PTPN3, P26045.
Assay [22] addresses FRMPD2_2, Q68DX3.
Assay [23] has as its target T13, SIPA1L2, Q9P2F8.
T13 sequence (Q9P2F8 945-1036, limits assumed, looked up): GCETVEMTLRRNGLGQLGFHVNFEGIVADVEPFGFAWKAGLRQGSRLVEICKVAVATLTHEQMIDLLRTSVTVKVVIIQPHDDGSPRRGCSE

The target of assay [24] is T14, TX1BP3, O14907.
T14 sequence (O14907 10-122, limits assumed, looked up): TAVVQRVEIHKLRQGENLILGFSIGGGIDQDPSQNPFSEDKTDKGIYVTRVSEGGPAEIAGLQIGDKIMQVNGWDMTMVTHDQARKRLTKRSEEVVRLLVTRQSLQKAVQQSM

What is called pKd is the Kd on a negative log10 scale, so that one unit is a factor of ten.

Sequence of DLG4_1, P78352 (P78352 62-152): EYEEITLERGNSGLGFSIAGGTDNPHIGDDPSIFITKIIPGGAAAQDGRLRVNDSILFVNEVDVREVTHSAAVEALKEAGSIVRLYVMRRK
Sequence of MAST2, Q6P0Q8 (Q6P0Q8 1099-1202): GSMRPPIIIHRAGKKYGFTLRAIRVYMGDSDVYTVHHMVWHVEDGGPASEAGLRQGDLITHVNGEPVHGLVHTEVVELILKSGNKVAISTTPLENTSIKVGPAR
Sequence of FRMPD2_2, Q68DX3 (Q68DX3 944-1038): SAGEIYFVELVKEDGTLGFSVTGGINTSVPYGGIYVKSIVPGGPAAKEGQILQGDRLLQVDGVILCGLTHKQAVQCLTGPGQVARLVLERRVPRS
Sequence of PTPN3, P26045 (P26045 505-587): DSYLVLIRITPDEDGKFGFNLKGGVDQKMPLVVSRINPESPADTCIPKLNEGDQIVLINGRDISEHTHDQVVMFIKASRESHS
Sequence of PDLIM1, O00151 (O00151 1-87): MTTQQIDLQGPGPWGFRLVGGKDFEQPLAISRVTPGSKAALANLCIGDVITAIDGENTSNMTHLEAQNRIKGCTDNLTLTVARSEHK
Sequence of ARHGEF12, Q9NZN5-2 (Q9NZN5 other isoform, or with tags, fused parts or gaps): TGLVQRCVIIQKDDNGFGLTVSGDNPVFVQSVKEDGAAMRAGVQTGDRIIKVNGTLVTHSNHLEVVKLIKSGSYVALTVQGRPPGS
Sequence of Inadl_4, Q8NI35 (Q8NI35 547-651): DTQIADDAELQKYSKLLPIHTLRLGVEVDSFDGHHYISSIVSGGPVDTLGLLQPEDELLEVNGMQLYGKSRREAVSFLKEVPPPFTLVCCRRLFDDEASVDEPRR
Sequence of GRIP2_4, Q9C0E4 (Q9C0E4 446-548): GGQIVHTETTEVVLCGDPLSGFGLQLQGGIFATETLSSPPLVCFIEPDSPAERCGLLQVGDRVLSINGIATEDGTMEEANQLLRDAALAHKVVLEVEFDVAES
Sequence of MAGI2_6, Q86UL8 (Q86UL8 1141-1229): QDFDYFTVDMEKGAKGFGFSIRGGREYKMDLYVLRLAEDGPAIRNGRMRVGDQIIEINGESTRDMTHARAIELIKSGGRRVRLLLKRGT
Sequence of CASK, O14936 (O14936 487-570): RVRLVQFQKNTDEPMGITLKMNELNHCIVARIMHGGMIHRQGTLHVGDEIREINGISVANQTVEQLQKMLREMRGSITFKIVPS

B1: JUP, P14923 (peptide)
chain: PYPTADHMLA
With B1, the pKd in [1] is 3.6; in [2] it was “below the threshold”; in [3] it was “below the threshold”; in assay [4], “below the threshold”; in [5], “below the threshold”; in assay [6], “below the threshold”. Besides, the pKd entry in assay [7], in assay [8], in [9], in [10], in assay [11] and in [12] was “below the threshold” in each case. For the same molecule, the pKd entry in assay [13], in assay [14], in assay [15], in assay [16], in assay [17] and in [18] was “below the threshold” each time. The pKd result was “below the threshold” in assay [19]; “below the threshold” in assay [20]; 3.97 in assay [21]; “below the threshold” in assay [22]; “below the threshold” in assay [23]; 4.01 in [24].

B2: PFKM, P08237 (peptide)
chain: TRKRSGEAAV
Turning to B2, the pKd result in assay [1], in assay [2], in assay [3], in assay [4], in [5] and in assay [6] was “below the threshold” throughout. Moreover, the pKd in [7] is 3.9; in assay [8], “below the threshold”; in assay [9], “below the threshold”; in assay [10] it was “below the threshold”; in assay [11], “below the threshold”; in assay [12], “below the threshold”. Moreover, the pKd result in assay [13] was “below the threshold”; in assay [14], “below the threshold”; in assay [15] it was 3.88; in assay [16] it was 3.83; in [17], “below the threshold”; in assay [18], “below the threshold”. Besides, the pKd in assay [19] was 4.16; in [20], “below the threshold”; in [21], 4.15; in [22] it was “below the threshold”; in assay [23], “below the threshold”; in assay [24], 4.07.

B3: PLXNB1, O43157 (peptide)
chain: AAVENKVTDL
Turning to B3, the pKd result in assay [1] was “below the threshold”; in assay [2] it was “below the threshold”; in [3] it was “below the threshold”; in assay [4] it was “below the threshold”; in assay [5] it was “below the threshold”; in assay [6], 4.99. The pKd was 4.23 in assay [7]; “below the threshold” in assay [8]; 3.77 in [9]; “below the threshold” in assay [10]; “below the threshold” in assay [11]; 3.47 in assay [12]. Besides, the pKd is 5.5 in assay [13]; 4.63 in [14]; 4.91 in [15]; 4.07 in assay [16]; “below the threshold” in assay [17]; 3.68 in assay [18]. In addition, the pKd is 5.61 in assay [19]; “below the threshold” in assay [20]; 4.68 in assay [21]; “below the threshold” in assay [22]; “below the threshold” in assay [23]; 4.77 in assay [24].

B4: FZD4, Q9ULV1 (peptide)
chain: KPGKGSETVV
With B4, the pKd result in [1], in assay [2], in [3], in assay [4], in [5] and in [6] was “below the threshold” throughout. The pKd was 3.64 in assay [7]; “below the threshold” in assay [8]; “below the threshold” in assay [9]; “below the threshold” in assay [10]; “below the threshold” in assay [11]; “below the threshold” in assay [12]. The pKd result was “below the threshold” in [13]; 4.78 in assay [14]; 4.67 in assay [15]; 3.93 in assay [16]; “below the threshold” in [17]; 4.85 in assay [18]. Moreover, the negative logarithm of the Kd (pKd) in [19] is 4.91; in [20], “below the threshold”; in assay [21], 4.13; in assay [22], “below the threshold”; in assay [23], “below the threshold”; in assay [24] it was “below the threshold”.
